Assay results taken from the supplement of paper PMC9112550, “Optimization of the antimicrobial peptide Bac7 by deep mutational scanning” (BMC Biology, 2022).

System: Escherichia coli TOP10
Experiment: shrunken log2 fold change of peptide-encoding DNA abundance (4.5 h post-induction vs induction); higher = less antimicrobial activity (less host growth inhibition)
Conditions: time post-induction: 4.5 h; library: site-saturation at positions 5, 18, 19, 20
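Note: peptides expressed intracellularly from a pBAD plasmid library in pooled LB shake-flask culture, induced with 0.3% L-arabinose, DNA abundance read by NGS, three biological replicates, DESeq2 with apeglm shrinkage.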

Row | Sequence | shrunken log2 fold change
1 | RRIRQRPPRLPRPRPRPIGWPRP | 0.256
2 | RRIRWRPPRLPRPRPRPYAGPRP | 0.0399
3 | RRIRIRPPRLPRPRPRPEQRPRP | -0.0838
4 | RRIRDRPPRLPRPRPRPRKNPRP | 0.244
5 | RRIRTRPPRLPRPRPRPQTTPRP | 0.0779
6 | RRIRARPPRLPRPRPRPKFNPRP | -0.129
7 | RRIRDRPPRLPRPRPRPAMVPRP | 0.282
8 | RRIRGRPPRLPRPRPRPTGPPRP | 0.692
9 | RRIRRRPPRLPRPRPRPRFHPRP | 0.0555
10 | RRIRERPPRLPRPRPRPNSVPRP | 0.0407
11 | RRIRIRPPRLPRPRPRPQQPPRP | 0.349
12 | RRIRFRPPRLPRPRPRPKNWPRP | 0.31
13 | RRIRERPPRLPRPRPRPKWEPRP | 0.0179
14 | RRIRTRPPRLPRPRPRPFMLPRP | -0.706
15 | RRIRVRPPRLPRPRPRPMAWPRP | -0.114
16 | RRIRYRPPRLPRPRPRPSQIPRP | -0.766
17 | RRIRCRPPRLPRPRPRPGRCPRP | 0.436
18 | RRIRHRPPRLPRPRPRPHTSPRP | -0.0988
19 | RRIRVRPPRLPRPRPRPKTKPRP | 0.0179
20 | RRIRIRPPRLPRPRPRPAYTPRP | -1.41
21 | RRIRDRPPRLPRPRPRPITTPRP | 0.0735
22 | RRIRYRPPRLPRPRPRPAVGPRP | 0.0398

Row | Sequence | shrunken log2 fold change
23 | RRIRVRPPRLPRPRPRPQAYPRP | -0.00917
24 | RRIRFRPPRLPRPRPRPHFWPRP | -0.124
25 | RRIRWRPPRLPRPRPRPSDAPRP | 0.191
26 | RRIRGRPPRLPRPRPRPWDMPRP | -0.08
27 | RRIRCRPPRLPRPRPRPCEPPRP | -0.221
28 | RRIRYRPPRLPRPRPRPLMDPRP | -0.143
29 | RRIRWRPPRLPRPRPRPGQSPRP | 0.572
30 | RRIRHRPPRLPRPRPRPCISPRP | -0.13
31 | RRIRHRPPRLPRPRPRPTILPRP | -0.194
32 | RRIRARPPRLPRPRPRPGYTPRP | 0.324
33 | RRIRVRPPRLPRPRPRPRWTPRP | -0.142
34 | RRIRCRPPRLPRPRPRPTIYPRP | -0.644
35 | RRIRERPPRLPRPRPRPPVCPRP | -0.119
36 | RRIRWRPPRLPRPRPRPAVSPRP | 0.127
37 | RRIRKRPPRLPRPRPRPGGRPRP | 1.91
38 | RRIRLRPPRLPRPRPRPEFYPRP | 0.0488
39 | RRIRHRPPRLPRPRPRPTNEPRP | -0.512
40 | RRIRTRPPRLPRPRPRPTPIPRP | 0.139
41 | RRIRIRPPRLPRPRPRPDYDPRP | -0.00137
42 | RRIRERPPRLPRPRPRPGTFPRP | -0.378
43 | RRIRQRPPRLPRPRPRPAMSPRP | 0.322
44 | RRIRGRPPRLPRPRPRPSMVPRP | 0.512

Row | Sequence | shrunken log2 fold change
45 | RRIRRRPPRLPRPRPRPQSYPRP | -0.0292
46 | RRIRGRPPRLPRPRPRPKTDPRP | 0.797
47 | RRIRVRPPRLPRPRPRPWISPRP | -0.0628
48 | RRIRNRPPRLPRPRPRPCWHPRP | -0.0656
49 | RRIRFRPPRLPRPRPRPEWCPRP | 0.0522
50 | RRIRRRPPRLPRPRPRPMCLPRP | 0.0511
51 | RRIRIRPPRLPRPRPRPNISPRP | -0.199
52 | RRIRDRPPRLPRPRPRPYALPRP | -0.051
53 | RRIRRRPPRLPRPRPRPIQYPRP | -0.00028
54 | RRIRPRPPRLPRPRPRPCKPPRP | -0.136
55 | RRIRFRPPRLPRPRPRPFSCPRP | -0.599
56 | RRIRRRPPRLPRPRPRPILSPRP | 0.246
57 | RRIRERPPRLPRPRPRPSWSPRP | -0.0285
58 | RRIRGRPPRLPRPRPRPEQYPRP | -0.183
59 | RRIRCRPPRLPRPRPRPYHDPRP | -1.05
60 | RRIRPRPPRLPRPRPRPGGNPRP | -0.0884
61 | RRIRSRPPRLPRPRPRPGWSPRP | 0.334
62 | RRIRMRPPRLPRPRPRPKMPPRP | 0.493
63 | RRIRDRPPRLPRPRPRPIDDPRP | 0.224
64 | RRIRYRPPRLPRPRPRPMQQPRP | -0.0118
65 | RRIRIRPPRLPRPRPRPIPQPRP | -0.14
66 | RRIRSRPPRLPRPRPRPCEHPRP | 0.135

Row | Sequence | shrunken log2 fold change
67 | RRIRCRPPRLPRPRPRPDGAPRP | 0.129
68 | RRIRKRPPRLPRPRPRPEPYPRP | -0.0587
69 | RRIRSRPPRLPRPRPRPCNYPRP | -0.455
70 | RRIRSRPPRLPRPRPRPDLQPRP | -0.193
71 | RRIRRRPPRLPRPRPRPCQTPRP | -0.041
72 | RRIRWRPPRLPRPRPRPIFFPRP | 0.125
73 | RRIRHRPPRLPRPRPRPCEEPRP | 0.0167
74 | RRIRTRPPRLPRPRPRPAVTPRP | 0.102
75 | RRIRFRPPRLPRPRPRPWNYPRP | -0.605
76 | RRIRRRPPRLPRPRPRPGVLPRP | 0.465
77 | RRIRWRPPRLPRPRPRPPCRPRP | -0.0876
78 | RRIRKRPPRLPRPRPRPCRMPRP | -0.00386
79 | RRIRDRPPRLPRPRPRPHCYPRP | -0.106
80 | RRIRRRPPRLPRPRPRPHYYPRP | -0.0297
81 | RRIRMRPPRLPRPRPRPMPLPRP | 0.00106
82 | RRIRERPPRLPRPRPRPCMGPRP | -0.0551
83 | RRIRFRPPRLPRPRPRPDLEPRP | -0.0811
84 | RRIRVRPPRLPRPRPRPHDMPRP | -0.0267
85 | RRIRQRPPRLPRPRPRPRSGPRP | 0.162
86 | RRIRCRPPRLPRPRPRPRKPPRP | 0.218
87 | RRIRYRPPRLPRPRPRPNTTPRP | -0.114
88 | RRIRKRPPRLPRPRPRPYASPRP | 0.0496

Row | Sequence | shrunken log2 fold change
89 | RRIRWRPPRLPRPRPRPTSHPRP | -0.26
90 | RRIRWRPPRLPRPRPRPHECPRP | -0.0602
91 | RRIRYRPPRLPRPRPRPDFNPRP | -1.62
92 | RRIRTRPPRLPRPRPRPDMKPRP | -0.0377
93 | RRIRCRPPRLPRPRPRPSCFPRP | -0.205
94 | RRIRRRPPRLPRPRPRPVPDPRP | 0.173
95 | RRIRFRPPRLPRPRPRPYGTPRP | -0.81
96 | RRIRWRPPRLPRPRPRPPRFPRP | 0.326
97 | RRIRNRPPRLPRPRPRPVPGPRP | 0.176
98 | RRIRQRPPRLPRPRPRPNEAPRP | -0.0868
99 | RRIRGRPPRLPRPRPRPPIHPRP | 0.108
100 | RRIRFRPPRLPRPRPRPVDYPRP | -0.031
101 | RRIRERPPRLPRPRPRPFTCPRP | -0.00783
102 | RRIRVRPPRLPRPRPRPGEMPRP | 0.329
103 | RRIRERPPRLPRPRPRPDGCPRP | 0.0163
104 | RRIRCRPPRLPRPRPRPHQYPRP | -0.05
105 | RRIRNRPPRLPRPRPRPYRPPRP | -0.379
106 | RRIRYRPPRLPRPRPRPHQGPRP | -0.142
107 | RRIRYRPPRLPRPRPRPYDQPRP | -0.124
108 | RRIRERPPRLPRPRPRPKWPPRP | 0.016
109 | RRIRKRPPRLPRPRPRPWAAPRP | 0.473
